In patent US6596687B1, “Cell adhesion inhibitors” (Biogen, Inc., priority 1995, dated 2003):
Square brackets hold non-standard residues; d marks the D form. 2‑MPUB = not defined here

B1: Compound 338 (peptide)
peptide: LDVPST
HELM: PEPTIDE1{[Cc1ccccc1NC(=O)Nc1ccc(CC(=O)[*:2])cc1].L.D.V.P.S.T}$$$$V2.0
SMILES: Cc1ccccc1NC(=O)Nc1ccc(CC(=O)N[C@@H](CC(C)C)C(=O)N[C@@H](CC(=O)O)C(=O)N[C@H](C(=O)N2CCC[C@H]2C(=O)N[C@@H](CO)C(=O)N[C@H](C(=O)O)[C@@H](C)O)C(C)C)cc1
B2: Compound 341 (peptide)
peptide: LPVD
HELM: PEPTIDE1{[Cc1ccccc1NC(=O)Nc1ccc(CC(=O)[*:2])cc1].L.P.V.D}$$$$V2.0
SMILES: Cc1ccccc1NC(=O)Nc1ccc(CC(=O)N[C@@H](CC(C)C)C(=O)N2CCC[C@H]2C(=O)N[C@H](C(=O)N[C@@H](CC(=O)O)C(=O)O)C(C)C)cc1
B3: Compound 153 (peptide)
peptide: FLDV
HELM: PEPTIDE1{[O=C(c1ccccc1)[*:2]].F.L.D.V}$$$$V2.0
SMILES: CC(C)C[C@H](NC(=O)[C@H](Cc1ccccc1)NC(=O)c1ccccc1)C(=O)N[C@@H](CC(=O)O)C(=O)N[C@H](C(=O)O)C(C)C
B4: Compound 339 (peptide)
peptide: VLPD
HELM: PEPTIDE1{[Cc1ccccc1NC(=O)Nc1ccc(CC(=O)[*:2])cc1].V.L.P.D}$$$$V2.0
SMILES: Cc1ccccc1NC(=O)Nc1ccc(CC(=O)N[C@H](C(=O)N[C@@H](CC(C)C)C(=O)N2CCC[C@H]2C(=O)N[C@@H](CC(=O)O)C(=O)O)C(C)C)cc1
B5: Compound 337 (peptide)
peptide: {2‑MPUPA}-LDVPS-OH
B6: Compound 343 (peptide)
peptide: H-[dP][dV][dD][dL]-{2‑MPUB}
modifications: reading uncertain

Target: T1, VLA-4 (alpha4beta1 integrin) (UniProt P13612 34-1032; P05556 21-798, limits assumed)
T1 construct: whole, on cells; also called very late antigen-4; CD49d/CD29
Assay: Ramos/BSA-CS1 adhesion inhibition
Procedure: Following labelling, the cells were washed twice in assay buffer (24 mM TRIS, 137 mM NaCl, 2.7 mM KCl, pH 7.4, containing 0.1 BSA and 2mM glucose) to remove any cations originating from the culture medium. The cells were then resuspended in assay buffer to 4 ×10^6 cells/mL and 2 mM MnCl_2 was added to upregulate VLA4 on the surface of the cells.
Immediately prior to running the assay, we removed the BSA blocking solution from the 96-well plates and washed the wells with 100 μL of assay buffer. We then added to each well 25 μL of test cell adhesion inhibitory compound at 2×the final concentration and 25 μL of the labelled Ramos cells. […] Each concentration of compound was tested in triplicate. The compound and cells are allowed to incubate for 30 minutes at room temperature.
Percent binding is calculated by the formula: […]

T1 sequence (P13612 34-1032 limits assumed, chain 1 of 2): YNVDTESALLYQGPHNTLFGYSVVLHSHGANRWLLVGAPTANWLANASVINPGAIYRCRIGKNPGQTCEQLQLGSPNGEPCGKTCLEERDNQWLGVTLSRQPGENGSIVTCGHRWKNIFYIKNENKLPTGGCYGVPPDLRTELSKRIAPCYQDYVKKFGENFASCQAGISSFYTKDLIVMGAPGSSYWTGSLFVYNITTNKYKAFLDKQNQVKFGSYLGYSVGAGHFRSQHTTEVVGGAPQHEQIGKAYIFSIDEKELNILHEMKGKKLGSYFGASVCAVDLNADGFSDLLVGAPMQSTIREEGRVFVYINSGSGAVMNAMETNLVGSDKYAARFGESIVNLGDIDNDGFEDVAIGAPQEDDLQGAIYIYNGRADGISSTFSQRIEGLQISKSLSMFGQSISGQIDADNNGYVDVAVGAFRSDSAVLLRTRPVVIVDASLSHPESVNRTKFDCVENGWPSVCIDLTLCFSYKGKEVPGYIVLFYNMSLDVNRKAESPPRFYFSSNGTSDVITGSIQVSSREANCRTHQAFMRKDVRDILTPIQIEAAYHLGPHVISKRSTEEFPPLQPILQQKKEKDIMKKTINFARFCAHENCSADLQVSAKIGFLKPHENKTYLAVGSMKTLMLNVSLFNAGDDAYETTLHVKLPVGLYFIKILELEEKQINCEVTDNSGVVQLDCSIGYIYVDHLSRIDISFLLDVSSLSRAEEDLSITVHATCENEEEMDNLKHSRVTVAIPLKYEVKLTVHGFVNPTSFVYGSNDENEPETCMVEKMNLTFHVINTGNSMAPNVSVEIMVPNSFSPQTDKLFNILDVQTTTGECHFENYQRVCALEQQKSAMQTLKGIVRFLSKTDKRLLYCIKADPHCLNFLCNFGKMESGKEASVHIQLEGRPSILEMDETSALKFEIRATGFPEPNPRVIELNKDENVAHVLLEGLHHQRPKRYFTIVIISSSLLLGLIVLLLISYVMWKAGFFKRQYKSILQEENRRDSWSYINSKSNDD
T1 sequence (P05556 21-798 limits assumed, chain 2 of 2): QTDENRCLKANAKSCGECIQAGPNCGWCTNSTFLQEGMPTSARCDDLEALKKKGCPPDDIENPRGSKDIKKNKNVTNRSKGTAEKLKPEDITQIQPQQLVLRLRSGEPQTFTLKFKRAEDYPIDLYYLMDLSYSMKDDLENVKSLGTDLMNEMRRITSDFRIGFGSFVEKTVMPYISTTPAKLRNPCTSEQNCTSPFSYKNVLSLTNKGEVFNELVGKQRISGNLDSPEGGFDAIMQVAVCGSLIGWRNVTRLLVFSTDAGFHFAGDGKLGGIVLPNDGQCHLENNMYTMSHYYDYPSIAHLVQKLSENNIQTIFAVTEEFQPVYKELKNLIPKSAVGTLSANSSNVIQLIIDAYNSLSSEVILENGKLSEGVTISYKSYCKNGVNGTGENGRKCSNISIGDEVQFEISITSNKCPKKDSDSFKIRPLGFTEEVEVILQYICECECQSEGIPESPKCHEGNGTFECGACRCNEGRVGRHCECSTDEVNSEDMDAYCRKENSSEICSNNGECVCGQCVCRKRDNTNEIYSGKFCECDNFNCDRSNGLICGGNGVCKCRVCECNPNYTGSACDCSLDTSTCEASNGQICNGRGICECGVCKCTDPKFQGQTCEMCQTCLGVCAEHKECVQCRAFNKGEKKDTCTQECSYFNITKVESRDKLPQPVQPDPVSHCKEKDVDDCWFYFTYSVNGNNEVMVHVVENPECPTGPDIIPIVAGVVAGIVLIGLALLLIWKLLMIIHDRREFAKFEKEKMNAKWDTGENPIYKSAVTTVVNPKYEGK

Row | Binder | IC50 [µM]
1 | B1 | < 0.05
2 | B2 | > 10
3 | B3 | > 10
4 | B4 | > 10
5 | B5 | < 0.05

Target: VLA-4 (alpha4beta1 integrin) (UniProt P13612)
Assay: Ramos/BSA-CS1 adhesion inhibition

Chain of VLA-4 (alpha4beta1 integrin) (UniProt P13612) (P13612 34-1032 limits assumed, chain 1 of 2): as the sequence (P13612 34-1032 limits assumed, chain 1 of 2) above
Chain of VLA-4 (alpha4beta1 integrin) (UniProt P13612) (P05556 21-798 limits assumed, chain 2 of 2, further chain): as the sequence (P05556 21-798 limits assumed, chain 2 of 2) above

Row | Binder | IC50 [µM]
6 | B6 | > 10
